No end group written: not given here.
How the values were obtained:
[1] = biological target: SIRT2 (residues 38–356 of the full-length human SIRT2) (human) (UniProt Q8IXJ6)
[2] = biological target: T1, SIRT2 (residues 38–356 of the full-length human SIRT2) (human, UniProt Q8IXJ6 38-356); experiment: crystal structure; 10 mg/mL SIRT2 in 20 mM Tris, 50 mM NaCl, pH 7.5 preincubated on ice with 10 mM BHJH-TM1 for about 1 h; hanging drop, 25% PEG 3350, 0.1 M Hepes pH 7.5; 2.1 Å, two subunits in the asymmetric unit; settings: both partners purified
T1 construct: NAD-dependent protein deacylase sirtuin-2 (SIRT2), human, residues 38-356 of the full-length protein; Cloned into pET28b(+) with an N-terminal hexahistidine and sumo tag; The tag was cut off by Ulp1 and removed on a second Ni-NTA column; source: E. coli BL21 (DE3), purified (Ni-NTA, Ulp1 cleavage, second Ni-NTA, Superdex G200); not shown: His6, N-terminal, cleaved; SUMO, N-terminal, cleaved
T1 sequence (looked up): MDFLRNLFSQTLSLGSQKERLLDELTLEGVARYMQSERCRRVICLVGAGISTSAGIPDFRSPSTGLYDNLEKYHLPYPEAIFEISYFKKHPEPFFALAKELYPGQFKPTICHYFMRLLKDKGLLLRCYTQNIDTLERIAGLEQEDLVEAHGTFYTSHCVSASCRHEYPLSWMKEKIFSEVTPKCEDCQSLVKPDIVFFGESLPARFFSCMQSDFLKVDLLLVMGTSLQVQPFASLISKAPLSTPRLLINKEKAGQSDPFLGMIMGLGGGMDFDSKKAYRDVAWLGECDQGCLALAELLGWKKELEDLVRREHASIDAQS

H3K9 myristoyl peptide (histone H3 Lys9 peptide bearing a myristoyl group)
Km of demyristoylation of the H3K9 myristoyl peptide by SIRT2 (HPLC kinetics, 0.2 μM SIRT2, 1 mM NAD, 37°C, peptide 0.25-32 μM) [1]: 0.24 µM

PKK(thiomyristoyl)TG (also called Myr Peptide (PKK(Tmy)TG)) [BHJH-TM1 thiomyristoyl peptide (PKK(TMy)TG)]
binding result [2]: binds
